Data reported in patent US20210253718A1 (MODMAB THERAPEUTICS, published 2021).
Numbering of substitutions follows the chain as printed.

B1: IgG-2921 (antibody, V domains shown)
VH: EVQLVESGGGLVQPGGSLRLSCAASGFNISYYYIHWVRQAPGKGLEWVASIYPSSGSTSYADSVKGRFTISADTSKNTAYLQMNSLRAEDTAVYYCARGAMDYWGQGTLVTVSS
VL: DIQMTQSPSSLSASVGDRVTITCRASQSVSSAVAWYQQKPGKAPKLLIYSASSLYSGVPSRFSGSRSGTDFTLTISSLQPEDFATYYCQQWYAGSLITFGQGTKVEIK
B2: IgG-2910 (antibody, V domains shown)
VH: B1 VH with Y32S, I34M, P53S, G56S
VL: B1 VL with A93G, G94S, S95H
B3: IgG-2920 (antibody, V domains shown)
VH: B1 VH with A100G
VL: B1 VL with Y92F, S95A
B4: Fab-2898 (Fab, V domains shown)
VH: EVQLVESGGGLVQPGGSLRLSCAASGFNIYSYSMHWVRQAPGKGLEWVASIYSSSGSTSYADSVKGRFTISADTSKNTAYLQMNSLRAEDTAVYYCARAVWGLDYWGQGTLVTVSS
VL: DIQMTQSPSSLSASVGDRVTITCRASQSVSSAVAWYQQKPGKAPKLLIYSASSLYSGVPSRFSGSRSGTDFTLTISSLQPEDFATYYCQQWWGYYSLITFGQGTKVEIK
notes: Fab; also called Fv-2898
B5: Fab-2916 (Fab, V domains shown)
VH: EVQLVESGGGLVQPGGSLRLSCAASGFNISYSSIHWVRQAPGKGLEWVASIYPSYSYTYYADSVKGRFTISADTSKNTAYLQMNSLRAEDTAVYYCARYGYYGMDYWGQGTLVTVSS
VL: B4 VL with W92Y, G93H, Y95P, S96Y
notes: Fab
B6: Fab-2913 (Fab, V domains shown)
VH: B5 VH with S54Y, Y55S, Y57S, Y59S, M104L
VL: B4 VL with W92G, G93V, Y94S, Y95H, S96Y, I98F
notes: Fab; also called Fv-2913
B7: Fab-2927 (Fab, V domains shown)
VH: B5 VH with S30Y, I34M, S56G, Y59S, M104F
VL: B4 VL with W92G, G93S, Y94H, Y95G, S96Y
notes: Fab; also called Fv-2927
B8: Fab-2914 (Fab, V domains shown)
VH: B1 VH with S30Y, Y32S, I34M, G56S
VL: B1 VL with A93Y
notes: Fab; also called Fv-2914

biological target: T1, recombinant human FZD5-Fc chimera (R&D Systems, Catalog no. 1617-FZ) (human, UniProt Q13467 27-167); assay: SPR, Frizzled-Fc chimera;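 further: binding targets are Fc fusions carrying an extracellular Frizzled fragment that contains the CRD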
T1 construct: used for selection and ELISA; Fc part of the bought chimera not given
T1 sequence: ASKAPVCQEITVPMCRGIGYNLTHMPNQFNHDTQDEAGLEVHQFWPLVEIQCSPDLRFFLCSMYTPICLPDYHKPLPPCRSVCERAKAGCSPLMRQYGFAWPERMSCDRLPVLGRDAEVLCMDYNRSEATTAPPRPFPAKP

Binder	Kd [nM]	koff [s⁻¹]	kon [M⁻¹ s⁻¹]
B1	0.106	9.81e-05	922000
B2	0.115	0.000174	1.52e+06
B3	0.0883	0.000317	3.59e+06

biological target: T2, FZD8-Fc (UniProt Q9H461 28-158, limits assumed); assay: SPR, Frizzled-Fc chimera;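 further: binding targets are Fc fusions carrying an extracellular Frizzled fragment that contains the CRD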
T2 construct: extracellular domain; also called Frizzled-Fc chimera (FZD8); not shown: Fc part
T2 sequence (looked up): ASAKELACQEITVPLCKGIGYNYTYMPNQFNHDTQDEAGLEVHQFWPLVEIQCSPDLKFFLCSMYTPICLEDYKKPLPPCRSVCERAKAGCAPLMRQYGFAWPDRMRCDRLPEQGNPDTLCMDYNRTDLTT

Binder	Kd [nM]	koff [s⁻¹]	kon [M⁻¹ s⁻¹]
B1	0.0244	2.71e-05	1.11e+06
B2	0.0427	2.28e-05	533000
B3	0.056	0.000238	4.25e+06

biological target: FZD1 cysteine-rich domain (CRD), MYC-tagged and GPI-anchored on CHO cells (human); assay: flow cytometry, CHO-CRD cells;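 further: flow cytometry of Fab binding to CHO cells overexpressing a Frizzled CRD, with binding defined as median fluorescence over twice that of CHO cells lacking any Frizzled CRD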

Binder	median fluorescence
B4	14.9
B5	34.3
B6	17.5
B7	18.7
B8	40.3

biological target: FZD2 cysteine-rich domain (CRD), MYC-tagged and GPI-anchored on CHO cells (human, UniProt Q14332 35-161); assay: flow cytometry, CHO-CRD cells;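 further: flow cytometry of Fab binding to CHO cells overexpressing a Frizzled CRD, with binding defined as median fluorescence over twice that of CHO cells lacking any Frizzled CRD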

Binder	median fluorescence
B4	13.5
B5	18.9
B6	14.1
B7	17.9
B8	18.9

biological target: T3, FZD3 cysteine-rich domain (CRD), MYC-tagged and GPI-anchored on CHO cells (human, UniProt Q9NPG1 24-150, GPI anchor); assay: flow cytometry, CHO-CRD cells;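 further: flow cytometry of Fab binding to CHO cells overexpressing a Frizzled CRD, with binding defined as median fluorescence over twice that of CHO cells lacking any Frizzled CRD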
T3 construct: domain: cysteine-rich domain (CRD); also called FZD3 CRD; CHO-myc-FZDGPI; not shown: MYC tag and GPI anchor signal
T3 sequence (looked up): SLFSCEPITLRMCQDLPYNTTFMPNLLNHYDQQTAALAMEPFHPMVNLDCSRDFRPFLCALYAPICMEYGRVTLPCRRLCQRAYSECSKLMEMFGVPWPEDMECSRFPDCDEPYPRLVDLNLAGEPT

Binder	median fluorescence
B4	5.05
B5	4.53
B6	4.61
B7	4.45
B8	4.61

biological target: T4, FZD4 cysteine-rich domain (CRD), MYC-tagged and GPI-anchored on CHO cells (human, UniProt Q9ULV1 42-167, GPI anchor); assay: flow cytometry, CHO-CRD cells;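 further: flow cytometry of Fab binding to CHO cells overexpressing a Frizzled CRD, with binding defined as median fluorescence over twice that of CHO cells lacking any Frizzled CRD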
T4 construct: also called FZD4 CRD; CHO-myc-FZDGPI; not shown: MYC tag and GPI anchor signal
T4 sequence: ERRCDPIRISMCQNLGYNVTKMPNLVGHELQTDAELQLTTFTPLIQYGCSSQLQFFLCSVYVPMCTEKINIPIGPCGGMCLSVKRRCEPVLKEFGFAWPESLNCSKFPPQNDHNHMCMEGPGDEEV

Binder	median fluorescence
B4	6.26
B5	6.1
B6	5.57
B7	5.94
B8	5.52

biological target: T5, FZD5 cysteine-rich domain (CRD), MYC-tagged and GPI-anchored on CHO cells (human, UniProt Q13467 29-156, GPI anchor); assay: flow cytometry, CHO-CRD cells
T5 construct: also called FZD5 CRD; CHO-myc-FZDGPI; not shown: MYC tag and GPI anchor signal
T5 sequence: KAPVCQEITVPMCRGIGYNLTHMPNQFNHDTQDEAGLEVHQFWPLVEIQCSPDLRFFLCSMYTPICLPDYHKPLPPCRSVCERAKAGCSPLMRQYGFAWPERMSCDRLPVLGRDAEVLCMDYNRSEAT

Binder	median fluorescence
B4	32
B5	24.1
B6	27.1
B7	28.3
B8	31.9

biological target: T6, FZD6 cysteine-rich domain (CRD), MYC-tagged and GPI-anchored on CHO cells (human, UniProt O60353 20-146, GPI anchor); assay: flow cytometry, CHO-CRD cells
T6 construct: also called FZD6 CRD; CHO-myc-FZDGPI; not shown: MYC tag and GPI anchor signal
T6 sequence: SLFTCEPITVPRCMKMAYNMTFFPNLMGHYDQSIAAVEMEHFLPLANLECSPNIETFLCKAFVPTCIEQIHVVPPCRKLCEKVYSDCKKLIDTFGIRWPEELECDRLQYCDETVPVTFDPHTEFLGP

Binder	median fluorescence
B4	4.49
B5	3.49
B6	3.82
B7	3.05
B8	3.59

biological target: FZD7 cysteine-rich domain (CRD), MYC-tagged and GPI-anchored on CHO cells (human, UniProt O75084 45-169); assay: flow cytometry, CHO-CRD cells

Binder	median fluorescence
B4	36.9
B5	36.2
B6	34.9
B7	16.7
B8	18.4

biological target: T7, FZD8 cysteine-rich domain (CRD), MYC-tagged and GPI-anchored on CHO cells (human, UniProt Q498S8 31-155 (rat entry), GPI anchor); assay: flow cytometry, CHO-CRD cells
T7 construct: also called FZD8 CRD; CHO-myc-FZDGPI; not shown: MYC tag and GPI anchor signal
T7 sequence: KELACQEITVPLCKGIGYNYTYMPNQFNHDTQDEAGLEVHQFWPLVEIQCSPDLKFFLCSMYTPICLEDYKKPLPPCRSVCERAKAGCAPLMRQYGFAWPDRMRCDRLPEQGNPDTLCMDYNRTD

Binder	median fluorescence
B4	12.7
B5	7.37
B7	10.3
B8	8.9

biological target: T8, FZD9 cysteine-rich domain (CRD), MYC-tagged and GPI-anchored on CHO cells (human, UniProt O00144 35-161, GPI anchor); assay: flow cytometry, CHO-CRD cells
T8 construct: also called FZD9 CRD; CHO-myc-FZDGPI; not shown: MYC tag and GPI anchor signal
T8 sequence: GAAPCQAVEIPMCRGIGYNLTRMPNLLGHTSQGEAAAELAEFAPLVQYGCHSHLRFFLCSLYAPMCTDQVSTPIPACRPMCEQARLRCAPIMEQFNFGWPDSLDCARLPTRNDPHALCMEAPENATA

Binder	median fluorescence
B4	4.57
B5	3.52
B6	3.79
B7	3.85
B8	3.82

biological target: T9, FZD10 cysteine-rich domain (CRD), MYC-tagged and GPI-anchored on CHO cells (human, UniProt Q9ULW2 30-156, GPI anchor); assay: flow cytometry, CHO-CRD cells
T9 construct: also called FZD10 CRD; CHO-myc-FZDGPI; not shown: MYC tag and GPI anchor signal
T9 sequence: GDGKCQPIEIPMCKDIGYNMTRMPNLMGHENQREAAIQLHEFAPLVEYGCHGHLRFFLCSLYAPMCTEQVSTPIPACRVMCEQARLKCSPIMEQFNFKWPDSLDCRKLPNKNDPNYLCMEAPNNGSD

Binder	median fluorescence
B4	4.26
B5	2.94
B6	3.75
B7	3.31
B8	3.72

biological target: T3, FZD3 cysteine-rich domain (CRD), …; assay: immunofluorescence, CHO-CRD cells

Binder	binding result
B4	no binding
B5	no binding
B6	no binding
B7	no binding
B8	no binding

biological target: T4, FZD4 cysteine-rich domain (CRD), …; assay: immunofluorescence, CHO-CRD cells

Binder	binding result
B4	no binding
B5	no binding
B6	no binding
B7	no binding
B8	no binding

biological target: T6, FZD6 cysteine-rich domain (CRD), …; assay: immunofluorescence, CHO-CRD cells

Binder	binding result
B4	no binding
B5	no binding
B6	no binding
B7	no binding
B8	no binding

biological target: T8, FZD9 cysteine-rich domain (CRD), …; assay: immunofluorescence, CHO-CRD cells

Binder	binding result
B4	no binding
B5	no binding
B6	no binding
B7	no binding
B8	no binding

biological target: T9, FZD10 cysteine-rich domain (CRD), …; assay: immunofluorescence, CHO-CRD cells

Binder	binding result
B4	no binding
B5	no binding
B6	no binding
B7	no binding
B8	no binding
